{
  "source": "patent CN113667016A",
  "about": "(PUMISI BIOTECHNOLOGY ZHUHAI CO LTD, dated 2021)",
  "binders": {"B1": {"name": "89C8 (antibody, V domains shown)", "VH": "QVQLVQSGAEVKKPGSSVKVSCKASGGTFSSYAISWVRQAPGQGLEWMGGIIPILGIANYAQKFQGRVTITADKSTSTAYMELSSLRSEDTAVYYCARGGLGFGELFRKTGYYFDYWGQGTLVTVSS", "VL": "EIVMTQSPATLSVSPGERATLSCRASQSVSSNLAWYQQKPGQAPRLLIYAASTRATAIPARFSGSGSGTEFTLTISSLQSEDFAVYFCQQYNKLPLTFGGGTKVDIKR"}},
  "biological_target": "S1-His (SARS-CoV-2, UniProt P0DTC2 16-685)",
  "data": [
    {"binder": "B1", "values": [
      {"measurement": "Kd", "value": 7.6, "unit": "nM"},
      {"measurement": "koff", "value": 0.000385, "unit": "s⁻¹"},
      {"measurement": "kon", "value": 50400, "unit": "M⁻¹ s⁻¹"}
    ]}
  ]
}
